Measured values: patent US11278600B2, “Human alpha-galactosidase variants” (Codexis, Inc., priority 2014, dated 2022)
Substitutions are numbered along the chain they refer to.

B1: 349 (protein)
chain: LDNGLARTPTMGWLHWERFMCNLDCQEEPDSCISEKLFMEMAERMVSEGWKDAGYEYLCIDDCWMAPQRDSEGRLQADPQRFPHGIRQLANYVHSKGLKFGIYADVGNKTCAGFPGSFGYYDIDAQTFADWGVDLLKFDGCYCDSLENLADGYKHMSLALNRTGRSIVYSCEWPLYMWPFQKPNYTEIRQYCNHWRNFADIDDSWASVKSILDWTSFNQETIVDVAGPGGWNDPDMLVIGNFGLSWDQQVTQMALWAIMAAPLFMSNDLRHISPQAKALLQDKDVIAINQDPLGKQGYQLRQGDNFEVWERPLSGLAWAVAIINRQEIGGPRSYTIAVASLGKGVACNPACFITQLLPVKRKLGLYNWTSRLKSHINPTGTVLLQLENTMQMSLKDLL
modifications: Synthetic Polypeptide sequence of Variant No. 349 of mature Human GLA
B2: 353 (protein)
chain: B1 chain with V208I, D247N, I376V
modifications: Synthetic Polypeptide sequence of Variant No. 353 of mature Human GLA
B3: 352 (protein)
chain: B1 chain with V208I, T221K, D247N, Q302K, L365F, I376V
modifications: Synthetic Polypeptide sequence of Variant No. 352 of mature Human GLA
B4: 356 (protein)
chain: B1 chain with V208I, Q302K, L365F
modifications: Synthetic Polypeptide sequence of Variant No. 356 of mature Human GLA
B5: 355 (protein)
chain: B1 chain with V208I, K343D, L365F, I376V
modifications: Synthetic Polypeptide sequence of Variant No. 355 of mature Human GLA
B6: 351 (protein)
chain: B1 chain with D247N, Q302K, L365F, I376V
modifications: Synthetic Polypeptide sequence of Variant No. 351 of mature Human GLA
B7: 358 (protein)
chain: B1 chain with V208I, Q302K, L365F
modifications: Synthetic Polypeptide sequence of Variant No. 358 of mature Human GLA
B8: 354 (protein)
chain: B1 chain with V208I, D247N
modifications: Synthetic Polypeptide sequence of Variant No. 354 of mature Human GLA
B9: 350 (protein)
chain: B1 chain with I322V, L365F, I376V
modifications: Synthetic Polypeptide sequence of Variant No. 350 of mature Human GLA
B10: 357 (protein)
chain: B1 chain with V208I, Q302K, I322V, L365F, I376V
modifications: Synthetic Polypeptide sequence of Variant No. 357 of mature Human GLA

Assay: HTP-analysis of supernatants pretreated with base (MUGal hydrolysis)
Type: biochemical
Settings: challenge at pH 8.2; activity of the variant/activity of Rd3BB (SEQ ID NO: 13); yeast culture supernatant
Method in brief: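 Supernatants from INVSc1 yeast expressing GLA variants (SD-Ura, 66-84 h, 30° C) were mixed with McIlvaine buffer pH 7.0-8.2 or 200 mM sodium bicarbonate pH 9.1-9.7 and held 1-18 h at 37° C. Residual activity was then measured on MUGal at pH 4.8/4.3, 37° C, 30-180 min, by fluorescence (Ex 355/Em 448 nm).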

Molecule	Relative Activity of GLA Variants After Challenge at pH 8.2
B1	++ (++ = >1.5 to 2.5 relative activity over Rd3BB (SEQ ID NO: 13))
B2	− (− = <0.5 relative activity to Rd3BB (SEQ ID NO: 13))
B3	+ (+ = 0.5 to 1.5 relative activity over Rd3BB (SEQ ID NO: 13))
B4	++ (++ = >1.5 to 2.5 relative activity over Rd3BB (SEQ ID NO: 13))
B5	++ (++ = >1.5 to 2.5 relative activity over Rd3BB (SEQ ID NO: 13))
B6	++ (++ = >1.5 to 2.5 relative activity over Rd3BB (SEQ ID NO: 13))
B7	++ (++ = >1.5 to 2.5 relative activity over Rd3BB (SEQ ID NO: 13))
B8	+ (+ = 0.5 to 1.5 relative activity over Rd3BB (SEQ ID NO: 13))
B9	+++ (+++ = >2.5 relative activity over Rd3BB (SEQ ID NO: 13))
B10	+++ (+++ = >2.5 relative activity over Rd3BB (SEQ ID NO: 13))

Assay: HTP-analysis of supernatants pretreated with bovine serum (MUGal hydrolysis)
Type: biochemical
Settings: activity of the variant/activity of Rd3BB (SEQ ID NO: 13), yeast culture supernatant
Method in brief: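 Yeast INVSc1 culture supernatants containing secreted GLA variants were mixed with bovine serum (20:80) and held 1 h at 37° C. Serum-treated samples then reacted with MUGal (4 mM stock) in citrate/McIlvaine buffer (pH 4.3/4.8) for 180 min at 37° C., were quenched with sodium carbonate, and read by fluorescence (Ex 355, Em 448 nm).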

Molecule	Relative Activity of GLA Variants After Challenge with Serum
B1	+ (+ = 0.5 to 1.5 relative activity over Rd3BB (SEQ ID NO: 13))
B2	+ (+ = 0.5 to 1.5 relative activity over Rd3BB (SEQ ID NO: 13))
B3	+ (+ = 0.5 to 1.5 relative activity over Rd3BB (SEQ ID NO: 13))
B4	+ (+ = 0.5 to 1.5 relative activity over Rd3BB (SEQ ID NO: 13))
B5	+ (+ = 0.5 to 1.5 relative activity over Rd3BB (SEQ ID NO: 13))
B6	+ (+ = 0.5 to 1.5 relative activity over Rd3BB (SEQ ID NO: 13))
B7	+ (+ = 0.5 to 1.5 relative activity over Rd3BB (SEQ ID NO: 13))
B8	+ (+ = 0.5 to 1.5 relative activity over Rd3BB (SEQ ID NO: 13))
B9	+ (+ = 0.5 to 1.5 relative activity over Rd3BB (SEQ ID NO: 13))
B10	+ (+ = 0.5 to 1.5 relative activity over Rd3BB (SEQ ID NO: 13))

Assay: HTP-analysis of supernatants pretreated with acid (MUGal hydrolysis)
Type: biochemical
Settings: challenge at pH 4.0; activity of the variant/activity of Rd3BB (SEQ ID NO: 13); yeast culture supernatant
Method in brief: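 Supernatants from INVSc1 yeast secreting GLA variants were challenged at 37° C. for 1-3 h in McIlvaine buffer at pH 3.3-4.3. Residual activity was then measured on 4 mM MUGal substrate stock at pH 4.8 with citrate buffer pH 4.3, over 30-180 min at 37° C. Reactions were quenched with sodium carbonate and read by fluorescence (Ex 355/Em 448 nm).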

Molecule	Relative Activity of GLA Variants After Challenge at pH 4.0
B1	+ (+ = 0.5 to 1.5 relative activity over Rd3BB (SEQ ID NO: 13))
B2	− (− = <0.5 relative activity to Rd3BB (SEQ ID NO: 13))
B3	+ (+ = 0.5 to 1.5 relative activity over Rd3BB (SEQ ID NO: 13))
B4	+ (+ = 0.5 to 1.5 relative activity over Rd3BB (SEQ ID NO: 13))
B5	++ (++ = >1.5 to 2.5 relative activity over Rd3BB (SEQ ID NO: 13))
B6	+ (+ = 0.5 to 1.5 relative activity over Rd3BB (SEQ ID NO: 13))
B7	+ (+ = 0.5 to 1.5 relative activity over Rd3BB (SEQ ID NO: 13))
B8	+ (+ = 0.5 to 1.5 relative activity over Rd3BB (SEQ ID NO: 13))
B9	++ (++ = >1.5 to 2.5 relative activity over Rd3BB (SEQ ID NO: 13))
B10	++ (++ = >1.5 to 2.5 relative activity over Rd3BB (SEQ ID NO: 13))

Assay: HTP-analysis of yeast culture supernatants, no challenge (MUGal hydrolysis)
Type: biochemical
Settings: activity of the variant/activity of Rd3BB (SEQ ID NO: 13), yeast culture supernatant
Method in brief: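 GLA variants expressed in yeast INVSc1, secreted into SD-Ura broth over 66-84 h at 30° C; clarified supernatants tested without challenge. Supernatant mixed with McIlvaine buffer pH 4.8 and 2 mM MUGal (citrate/KCl, pH 4.6), 37° C for 30-180 min, carbonate-quenched, fluorescence Ex 355/Em 448 nm.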

Molecule	Relative Activity of GLA Variants After No Challenge (NC)
B1	+ (+ = 0.5 to 1.5 relative activity over Rd3BB (SEQ ID NO: 13))
B2	− (− = <0.5 relative activity to Rd3BB (SEQ ID NO: 13))
B3	+ (+ = 0.5 to 1.5 relative activity over Rd3BB (SEQ ID NO: 13))
B4	+ (+ = 0.5 to 1.5 relative activity over Rd3BB (SEQ ID NO: 13))
B5	+ (+ = 0.5 to 1.5 relative activity over Rd3BB (SEQ ID NO: 13))
B6	+ (+ = 0.5 to 1.5 relative activity over Rd3BB (SEQ ID NO: 13))
B7	+ (+ = 0.5 to 1.5 relative activity over Rd3BB (SEQ ID NO: 13))
B8	− (− = <0.5 relative activity to Rd3BB (SEQ ID NO: 13))
B9	+ (+ = 0.5 to 1.5 relative activity over Rd3BB (SEQ ID NO: 13))
B10	+ (+ = 0.5 to 1.5 relative activity over Rd3BB (SEQ ID NO: 13))
